Measurements reported in the RNAGym collection of RNA variant scans (doi:10.7554/elife.80360).

B1: HDV Ribozyme (parent)
chain: GGCCGGCAUGGUCCCAGCCUCCUCGCUGGCGCCGGCUGGGCAACAUUCCGAGGGGACCGUCCCCUCGGUAAUGGCGAAUGGGACCCA

Variants of: B1
Test: self-cleavage, relative activity (ratio to wild type); higher = more cleavage; co-transcriptional

Variant	self-cleavage
GGCCGGCAUGGUCACAGCCUCCUCGCUGGCGCCGGCUGGGCAACAUUCCGAGGGGACCAUCCCCUCGGUAAUGGCGAAUGGGACCCA [C14A G59A]	0.762
GGCCGGCAUGGUCACAGCCUCCUCGCUGGCGCCGGCUGGGCAACAUUCCGAGGGGACCGUCCCCUCGGUAAUGGCUAAUGGGACCCA [C14A G76U]	1.27
GGCCGGCAUGGUCGCAGCCUCCUCGCUGGCGCCGGCUGGGCAACAUUCCGAGGGGACCGUCCCCUCGCUAAUGGCGAAUGGGACCCA [C14G G68C]	0.383
GGCCGGCAUGGUCACAGCCUCCACGCUGGCGCCGGCUGGGCAACAUUCCGAGGGGACCGUCCCCUCGGUAAUGGCGAAUGGGACCCA [C14A U23A]	0.575
GGCCGGCAUGGUCGCAGCCUCCUCGCUGGCGCCGGCUGGGCAACAUUCCGAGGGGACCUUCCCCUCGGUAAUGGCGAAUGGGACCCA [C14G G59U]	0.745
GGCCGGCAUGGUCACAGCCUCCUCGCUGGCGCCGGCUGCGCAACAUUCCGAGGGGACCGUCCCCUCGGUAAUGGCGAAUGGGACCCA [C14A G39C]	0.0615
GGCCGGCAUGGUCGCAGCCUCCUCGCUGGCGCCGGCUGGGCAACAUUCCGAGGGGACCGUCCCCUCUGUAAUGGCGAAUGGGACCCA [C14G G67U]	0.594
GGCCGGCAUGGUCGCAGCCUCCUCGCUGGCGCCGGCUCGGCAACAUUCCGAGGGGACCGUCCCCUCGGUAAUGGCGAAUGGGACCCA [C14G G38C]	0.142
GGCCGGCAUGGUCGCAGCCUCCUCGCUGGCGCCGGCUGGGCAACAUUCCGAGGGGACCGUCCACUCGGUAAUGGCGAAUGGGACCCA [C14G C63A]	0.755
GGCCGGCAUGGUCGCAGCCUCCUCGCUGGCGCCGGCUGGGCAACAUUCCGAGGGGACGGUCCCCUCGGUAAUGGCGAAUGGGACCCA [C14G C58G]	0.712
GGCCGGCAUGGUCGCAGCCUCCUCGCUGGCGCCGGCUGGGCGACAUUCCGAGGGGACCGUCCCCUCGGUAAUGGCGAAUGGGACCCA [C14G A42G]	0
GGCCGGCAUGGUCGCAGCCUCCUCGCUGGCGCCGGCUGGGCUACAUUCCGAGGGGACCGUCCCCUCGGUAAUGGCGAAUGGGACCCA [C14G A42U]	0.252
GGCCGGCAUGGUCACAGCCUCCUCGCUGGCGCCGGCUGGGCAACAUUCCGAGGUGACCGUCCCCUCGGUAAUGGCGAAUGGGACCCA [C14A G54U]	0.628
GGCCGGCAUGGUCACAGCCUCCUCGCUGGCGCCGGCUGGGCAACAUUCCGAGGGGACCGUCCCCUCGAUAAUGGCGAAUGGGACCCA [C14A G68A]	0.811
GGCCGGCAUGGUCACAGCCUCCUCGCUGGCGCCGGCUGGGCAACAUUCCGAGGGGACCGUCCCCUCGGUAAUGGCGAAUGGUACCCA [C14A G82U]	0.665
GGCCGGCAUGGUCGCAGCCUCCUCGCUGGCGCCGGCUGGUCAACAUUCCGAGGGGACCGUCCCCUCGGUAAUGGCGAAUGGGACCCA [C14G G40U]	0.0594
GGCCGGCAUGGUCACAGCCUCCUCGCUGGCGCCGGCUGGGCAACAUUCCGACGGGACCGUCCCCUCGGUAAUGGCGAAUGGGACCCA [C14A G52C]	0.782
GGCCGGCAUGGUCGCAACCUCCUCGCUGGCGCCGGCUGGGCAACAUUCCGAGGGGACCGUCCCCUCGGUAAUGGCGAAUGGGACCCA [C14G G17A]	0.123
GGCCGGCAUGGUCACAGCCUCCUCGCGGGCGCCGGCUGGGCAACAUUCCGAGGGGACCGUCCCCUCGGUAAUGGCGAAUGGGACCCA [C14A U27G]	0.895
GGCCGGCAUGGUCACAGCCUCCUCGCUGGCGCCCGCUGGGCAACAUUCCGAGGGGACCGUCCCCUCGGUAAUGGCGAAUGGGACCCA [C14A G34C]	0.151
GGCCGGCAUGGUCGCAGCCUCCUCGUUGGCGCCGGCUGGGCAACAUUCCGAGGGGACCGUCCCCUCGGUAAUGGCGAAUGGGACCCA [C14G C26U]	1.18
GGCCGGCAUGGUCGCAGCCUCCUCGCUGGCGCCGGCUGGGCAACAUUCCGAGGGGACCGUCCCCUCGGUAAUGGCGAAUGGGACCCG [C14G A87G]	0.683

Variant	self-cleavage
GGCCGGCAUGGUCGCAGCCUCCUUGCUGGCGCCGGCUGGGCAACAUUCCGAGGGGACCGUCCCCUCGGUAAUGGCGAAUGGGACCCA [C14G C24U]	0.403
GGCCGGCAUGGUCGCAGCCUCCUCGCUGGUGCCGGCUGGGCAACAUUCCGAGGGGACCGUCCCCUCGGUAAUGGCGAAUGGGACCCA [C14G C30U]	0.0396
GGCCGGCAUGGUCGCAGCCUCCUCGCUGGCGCCGGCUGGGAAACAUUCCGAGGGGACCGUCCCCUCGGUAAUGGCGAAUGGGACCCA [C14G C41A]	0.776
GGCCGGCAUGGUCGCAGCCUCCUCGCUGGCGUCGGCUGGGCAACAUUCCGAGGGGACCGUCCCCUCGGUAAUGGCGAAUGGGACCCA [C14G C32U]	0.196
GGCCGGCAUGGUCACAGCCUCCUCGCUGGCGCCGGCUGGGCAACAUUCCGAGGGGACCGUCCCCUCGGUAAUGUCGAAUGGGACCCA [C14A G74U]	0.281
GGCCGGCAUGGUCACAGCCUCCUCGCUGGCGCCGGCUGGGCAACAUUCCGAGGGGACCGUCCCCUCGGUAAUGACGAAUGGGACCCA [C14A G74A]	0.182
GGCCGGCAUGGUCGCAGCCUCCUCGCUGGCGCCGGGUGGGCAACAUUCCGAGGGGACCGUCCCCUCGGUAAUGGCGAAUGGGACCCA [C14G C36G]	0.237
GGCCGGCAUGGUCACAGCCUCCUCGCUGGCGCCGGCUGGGCAACAUCCCGAGGGGACCGUCCCCUCGGUAAUGGCGAAUGGGACCCA [C14A U47C]	0.415
GGCCGGCAUGGUCACAGCCUCCUCGCUGGCGCCGGCUGGGCAACAUGCCGAGGGGACCGUCCCCUCGGUAAUGGCGAAUGGGACCCA [C14A U47G]	0.519
GGCCGGCAUGGUCACAGCCUCCUCGCUGGCGCCGGCUGGGCAACAUUCCGAGUGGACCGUCCCCUCGGUAAUGGCGAAUGGGACCCA [C14A G53U]	0.848
GGCCGGCAUGGUCACAGCCUCCUCGCUGGCGCCGGCUGGGCAACAUUCCGAGAGGACCGUCCCCUCGGUAAUGGCGAAUGGGACCCA [C14A G53A]	0.499
GGCCGGCAUGGUCGCAGCCUCCUCGCUGUCGCCGGCUGGGCAACAUUCCGAGGGGACCGUCCCCUCGGUAAUGGCGAAUGGGACCCA [C14G G29U]	0.0396
GGCCGGCAUGGUCGCAGCCUCCUCGCUGCCGCCGGCUGGGCAACAUUCCGAGGGGACCGUCCCCUCGGUAAUGGCGAAUGGGACCCA [C14G G29C]	0.0665
GGCCGGCAUGGUCACAGCCACCUCGCUGGCGCCGGCUGGGCAACAUUCCGAGGGGACCGUCCCCUCGGUAAUGGCGAAUGGGACCCA [C14A U20A]	0
GGCCGGCAUGGUCACAGCCUCCUCGCUGGCUCCGGCUGGGCAACAUUCCGAGGGGACCGUCCCCUCGGUAAUGGCGAAUGGGACCCA [C14A G31U]	0.148
GGCCGGCAUGGUCACAGCCUCCUCGCUGGCGCCGGCUGGGCAACAUUCCGAGGGGACCGUCCCCACGGUAAUGGCGAAUGGGACCCA [C14A U65A]	0.811
GGCCGGCAUGGUCGCAGCCUCCUCGCUGGCCCCGGCUGGGCAACAUUCCGAGGGGACCGUCCCCUCGGUAAUGGCGAAUGGGACCCA [C14G G31C]	0.145
GGCCGGCAUGGUCGCAGCCUCCUCGCUGGCGCCGGCUGGGCAACAUUCCGACGGGACCGUCCCCUCGGUAAUGGCGAAUGGGACCCA [C14G G52C]	0.519
GGCCGGCAUGGUCGCAGCCUCCUCGCUGGCGCCGGCUGGGCAACAUUCCGAAGGGACCGUCCCCUCGGUAAUGGCGAAUGGGACCCA [C14G G52A]	0.739
GGCCGGCAUGGUCACAGCCUCCUCGCUGGCGCCGGCUGGGCAACAUUCCGAGGGGACCGUCCCCUCGGCAAUGGCGAAUGGGACCCA [C14A U69C]	0.95
GGCCGGCAUGGUCACAGCCUCCUCGCUGGCGCCGGCCGGGCAACAUUCCGAGGGGACCGUCCCCUCGGUAAUGGCGAAUGGGACCCA [C14A U37C]	0.504
GGCCGGCAUGGUCGCAGCCUCCUCGCUGGCGCCGGCUGGGCAAAAUUCCGAGGGGACCGUCCCCUCGGUAAUGGCGAAUGGGACCCA [C14G C44A]	0.128

Variant	self-cleavage
GGCCGGCAUGGUCGCAGCCUCCUCGCUGGCGCCGGCUGGGCAACAUUCCGUGGGGACCGUCCCCUCGGUAAUGGCGAAUGGGACCCA [C14G A51U]	0.791
GGCCGGCAUGGUCGCAGCCUCCUCGCUGGCGCCGGCUGGGCAACAUUCCGAGGGGACCGUCCCCUUGGUAAUGGCGAAUGGGACCCA [C14G C66U]	0.831
GGCCGGCAUGGUCGCAGCCUCCUCGCUAGCGCCGGCUGGGCAACAUUCCGAGGGGACCGUCCCCUCGGUAAUGGCGAAUGGGACCCA [C14G G28A]	0.0415
GGCCGGCAUGGUCGCAGCCUCCUCGCUGGCGCCGCCUGGGCAACAUUCCGAGGGGACCGUCCCCUCGGUAAUGGCGAAUGGGACCCA [C14G G35C]	0
GGCCGGCAUGGUCGCAGCCUCCUCGCUGGCGCCGACUGGGCAACAUUCCGAGGGGACCGUCCCCUCGGUAAUGGCGAAUGGGACCCA [C14G G35A]	0.199
GGCCGGCAUGGUCGCAGCCUCCUCGCUGGCGCCGUCUGGGCAACAUUCCGAGGGGACCGUCCCCUCGGUAAUGGCGAAUGGGACCCA [C14G G35U]	0
GGCCGGCAUGGUCGCAGCCUCCUCGCUGGCGCCAGCUGGGCAACAUUCCGAGGGGACCGUCCCCUCGGUAAUGGCGAAUGGGACCCA [C14G G34A]	0
GGCCGGCAUGGUCGCAGCCUCCUCGCUGGCGCCGGCUGGGCAACAUUCGGAGGGGACCGUCCCCUCGGUAAUGGCGAAUGGGACCCA [C14G C49G]	0.383
GGCCGGCAUGGUCGCAGCCUCCUCGCUGGCGCCGGCUGGGCAACAUUCUGAGGGGACCGUCCCCUCGGUAAUGGCGAAUGGGACCCA [C14G C49U]	0.529
GGCCGGCAUGGUCGCAGCCUCCUCGCUGGCGCAGGCUGGGCAACAUUCCGAGGGGACCGUCCCCUCGGUAAUGGCGAAUGGGACCCA [C14G C33A]	0.151
GGCCGGCAUGGUCACAGCCUCCUCGCUGGCGCCGGCUGGGCAACAUUCCCAGGGGACCGUCCCCUCGGUAAUGGCGAAUGGGACCCA [C14A G50C]	0.639
GGCCGGCAUGGUCACAGCCUCCUCGCUGGCGCCGGCUGGGCAACAUUCCAAGGGGACCGUCCCCUCGGUAAUGGCGAAUGGGACCCA [C14A G50A]	0.736
GGCCGGCAUGGUCGCAGCCUCCUCGCUGGCGCCGGCUGGGCAACAUUCCGAGCGGACCGUCCCCUCGGUAAUGGCGAAUGGGACCCA [C14G G53C]	0.727
GGCCGGCAUGGUCGCAGCCUCUUCGCUGGCGCCGGCUGGGCAACAUUCCGAGGGGACCGUCCCCUCGGUAAUGGCGAAUGGGACCCA [C14G C22U]	0.306
GGCCGGCAUGGUCGCAGCCUCCUCGCUGGCGCCGGCUGGGCAACAUUCCGAGGGGACCGUACCCUCGGUAAUGGCGAAUGGGACCCA [C14G C61A]	0.88
GGCCGGCAUGGUCGCAGCCUCCUCGCUGGCGCCGGCUGGGCAACAUUCCGAGGGGACCGUCACCUCGGUAAUGGCGAAUGGGACCCA [C14G C62A]	0.437
GGCCGGCAUGGUCGCAGCCUCCUCGCUGGCGCCGGCUGGGCAACAUUCCGAGGGGACCGUCUCCUCGGUAAUGGCGAAUGGGACCCA [C14G C62U]	0.554
GGCCGGCAUGGUCGCAGCCUCCUCGCUGGCGCCGGCUGGGCAACAUUCCGAGGGGACCGUCCCCUCGGUAAUGGCGAAUGGGACUCA [C14G C85U]	1.31
GGCCGGCAUGGUCGCAGCCUCCUCGCUGGCGCCGGCUGGGCAACAUUCCGAGGGGACCGUCCCCUCGGUAAUGGCGAAUGGGAGCCA [C14G C84G]	0.128
GGCCGGCAUGGUCGCAGCCUCCUCGCUGGCGCCGGCUGGGCAACAUUCCGAGGGGACCGUCCCCUCGGUAAUGGCGAAUGGGAACCA [C14G C84A]	0.519
